Measurements as given in patent publication US20100215651A1 (GLENMARK PHARMACEUTICALS S A, published 2010).
Substitutions are numbered along the chain they refer to. Names may count otherwise.

B1: VH16-G42R/VL43-Y87F (antibody, human IgG1, name in Kabat numbering, V domains shown)
VH: QVQLVQSGGGVVQPGRSLRLSCAASGVSLPDYGVSWVRQAPRKGLEWVAVIWGSETTYYNSALKSRFTISRDNSKNTLYLQMNSLRAEDTAVYYCARHYYYGGSYAMDYWGQGTLVTVSS
VL: DIVMTQTPSSLSASVGDRVTITCRASQDISKYLNWYQQKPGKAPKLLIYHTSRLHSGVPSRFSGSGSGTDFTLTISSLQPEDFATYFCQQGNTLPYTFGPGTKVDIKR
notes: substitutions in Kabat numbering
B2: VH16-F67L/VL43-P44V (antibody, human IgG1, name in Kabat numbering, V domains shown)
VH: B1 VH with R42G, F67L
VL: B1 VL with P44V, F87Y
notes: as for B1
B3: VH16-L78V/VL43-P44V (antibody, human IgG1, name in Kabat numbering, V domains shown)
VH: B1 VH with R42G, L78V
VL: B1 VL with P44V, F87Y
notes: as for B1
B4: VH16-G42R/VL43-F71Y (antibody, human IgG1, name in Kabat numbering, V domains shown)
VH: B1 VH
VL: B1 VL with F71Y, F87Y
notes: as for B1
B5: VH16-R94K/VL43-F71Y (antibody, human IgG1, V domains shown)
VH: B1 VH with R42G, R97K
VL: B1 VL with F71Y, F87Y
notes: Full-length human IgG1/kappa; substitutions in Kabat numbering
B6: VH16-G42R/VL43 (antibody, human IgG1, name in Kabat numbering, V domains shown)
VH: B1 VH
VL: B1 VL with F87Y
notes: as for B1
B7: VH16/VL43-P44V (antibody, human IgG1, V domains shown)
VH: B1 VH with R42G
VL: B1 VL with P44V, F87Y
notes: as for B1
B8: VH16-R94K/VL43-P44V (antibody, human IgG1, V domains shown)
VH: B1 VH with R42G, R97K
VL: B1 VL with P44V, F87Y
notes: as for B5
B9: VH16-F67L/VL43 (antibody, human IgG1, name in Kabat numbering, V domains shown)
VH: B1 VH with R42G, F67L
VL: B1 VL with F87Y
notes: as for B1
B10: VH16-R71K/VL43-F71Y (antibody, human IgG1, name in Kabat numbering, V domains shown)
VH: B1 VH with R42G, R71K
VL: B1 VL with F71Y, F87Y
notes: as for B1
B11: VH2VL40 (antibody, V domains shown)
VH: B1 VH with Q1E, Q6E, R42G, R86K, A87T, A96T, R97T
VL: B1 VL with A43V, K45N, D70E, F87Y, P100G, D105E
B12: VH20/VL44 (antibody, human IgG1, V domains shown)
VH: B1 VH with V11L, R16G, A23V, R42G, A49S, S74A, T77S
VL: B1 VL with T7S, L11M, V15I, K45N, D70E, F87Y, P100Q, V104L, D105E
B13: VH5VL40 (antibody, V domains shown)
VH: EVQLVESGGGLVKPGGSLRLSCAASGVSLPDYGVSWIRQAPGKGLEWVSVIWGSETTYYNSALKSRFTISRDNAKNSLYLQMDSLRVEDTAVYYCAGHYYYGGSYAMDYWGQGTLVTVSS
VL: B1 VL with A43V, K45N, D70E, F87Y, P100G, D105E
B14: VH5VL39 (antibody, V domains shown)
VH: B13 VH
VL: B1 VL with T7S, S10T, D70E, E81D, F87Y, P100Q, D105E
B15: VH16/VL44 (antibody, human IgG1, V domains shown)
VH: B1 VH with R42G
VL: B1 VL with T7S, L11M, V15I, K45N, D70E, F87Y, P100Q, V104L, D105E
B16: VH20/VL40 (antibody, human IgG1, V domains shown)
VH: B1 VH with V11L, R16G, A23V, R42G, A49S, S74A, T77S
VL: B1 VL with A43V, K45N, D70E, F87Y, P100G, D105E
B17: VH16/VL40 (antibody, human IgG1, V domains shown)
VH: B1 VH with R42G
VL: B1 VL with A43V, K45N, D70E, F87Y, P100G, D105E
B18: VH20/VL39 (antibody, human IgG1, V domains shown)
VH: B1 VH with V11L, R16G, A23V, R42G, A49S, S74A, T77S
VL: B1 VL with T7S, S10T, D70E, E81D, F87Y, P100Q, D105E
B19: VH20/VL43 (antibody, human IgG1, V domains shown)
VH: B1 VH with V11L, R16G, A23V, R42G, A49S, S74A, T77S
VL: B1 VL with F87Y
B20: VH5VL43 (antibody, V domains shown)
VH: B13 VH
VL: B1 VL with F87Y
B21: VH16/VL39 (antibody, human IgG1, V domains shown)
VH: B1 VH with R42G
VL: B1 VL with T7S, S10T, D70E, E81D, F87Y, P100Q, D105E
B22: VH16 Y32F/R94K/VL43 V3Q/T7S/P44I/N92A (antibody, human IgG1, name in Kabat numbering, V domains shown)
VH: B1 VH with Y32F, R42G, R97K
VL: B1 VL with V3Q, T7S, P44I, F87Y, N92A
notes: as for B5
B23: VH16/VL43-Y87F (antibody, human IgG1, V domains shown)
VH: B1 VH with R42G
VL: B1 VL
notes: as for B1
B24: VH16 Y32F/R94K/Y97F/VL43 V3Q/T7S/P44I/N92A (antibody, human IgG1, name in Kabat numbering, V domains shown)
VH: B1 VH with Y32F, R42G, R97K, Y100F
VL: B1 VL with V3Q, T7S, P44I, F87Y, N92A
notes: as for B5
B25: VH16-R71K/VL43-P44V (antibody, human IgG1, name in Kabat numbering, V domains shown)
VH: B1 VH with R42G, R71K
VL: B1 VL with P44V, F87Y
notes: as for B1
B26: VH16/VL43-F71Y (antibody, human IgG1, V domains shown)
VH: B1 VH with R42G
VL: B1 VL with F71Y, F87Y
notes: as for B1
B27: VH16 R94K/VL43 V3Q/T7S/Y32F/N92A (antibody, human IgG1, V domains shown)
VH: B1 VH with R42G, R97K
VL: B1 VL with V3Q, T7S, Y32F, F87Y, N92A
notes: as for B5
B28: VH16-R94K/VL43-Y87F (antibody, human IgG1, V domains shown)
VH: B1 VH with R42G, R97K
VL: B1 VL
notes: as for B5
B29: VH16-R71K/VL43-Y87F (antibody, human IgG1, name in Kabat numbering, V domains shown)
VH: B1 VH with R42G, R71K
VL: B1 VL
notes: as for B1
B30: VH16 Y32F/R94K/VL43 V3Q/T7S/Y32F/P44I/N92A (antibody, human IgG1, name in Kabat numbering, V domains shown)
VH: B1 VH with Y32F, R42G, R97K
VL: B1 VL with V3Q, T7S, Y32F, P44I, F87Y, N92A
notes: as for B5
B31: VH16 R94K VL43 Y32F (antibody, human IgG1, V domains shown)
VH: B1 VH with R42G, R97K
VL: B1 VL with Y32F, F87Y
notes: as for B5
B32: VH16 R94K/Y97F/VL43 V3Q/T7S/Y32F/P44I/N92A (antibody, human IgG1, name in Kabat numbering, V domains shown)
VH: B1 VH with R42G, R97K, Y100F
VL: B1 VL with V3Q, T7S, Y32F, P44I, F87Y, N92A
notes: as for B5
B33: VH16 R94K/VL43 V3Q/T7S/N92A (antibody, human IgG1)
heavy: not shown
VL: DIQMTQSPSSLSASVGDRVTITCRASQDISKYLNWYQQKPGKAPKLLIYHTSRLHSGVPSRFSGSGSGTDFTLTISSLQPEDFATYYCQQGATLPYTFGPGTKVDIKRTVAA
notes: as for B5

Each binder was assayed against T1, human CD19 (human, UniProt P15391 20-556) (assay: flow cytometry, NALM-6 cells, MPF vs chimeric FMC63).
T1 construct: CD19 as expressed on Raji, NALM-6 and SU-DHL-6 cells; also called CD19 antigen; B-cell surface antigen B4
T1 sequence: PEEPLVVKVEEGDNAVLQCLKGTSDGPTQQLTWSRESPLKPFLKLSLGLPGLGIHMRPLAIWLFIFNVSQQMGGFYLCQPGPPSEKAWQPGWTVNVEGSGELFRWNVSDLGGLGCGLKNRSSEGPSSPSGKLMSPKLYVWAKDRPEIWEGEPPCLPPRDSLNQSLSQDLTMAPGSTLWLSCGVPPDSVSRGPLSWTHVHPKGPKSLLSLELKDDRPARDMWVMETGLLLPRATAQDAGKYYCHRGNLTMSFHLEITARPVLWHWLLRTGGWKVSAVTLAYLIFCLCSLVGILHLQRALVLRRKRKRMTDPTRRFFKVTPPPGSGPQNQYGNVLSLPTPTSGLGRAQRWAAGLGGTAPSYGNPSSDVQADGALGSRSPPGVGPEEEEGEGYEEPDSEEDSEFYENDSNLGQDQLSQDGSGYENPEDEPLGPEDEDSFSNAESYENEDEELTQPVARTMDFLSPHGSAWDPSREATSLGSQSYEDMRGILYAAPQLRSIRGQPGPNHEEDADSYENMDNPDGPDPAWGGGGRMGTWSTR
Method: (§1) Binding of the CD19 humanized monoclonal antibodies by flow cytometry to Raji tumor cells (human Burkitt lymphoma, DSMZ ACC319), NALM-6 (human B cell precursor leukemia, DSMZ ACC128) and SU-DHL-6 (human B cell lymphoma, DSMZ ACC572) (all cell lines from DSMZ Braunschweig, Deutschland) was assessed. Cells were incubated with serial dilutions of each humanized monoclonal antibody. An irrelevant human IgG1 was used as a negative control. The cells were washed and detected by a phycoerythrin-labeled (PE) anti-human secondary antibody (eBioscience, CA, USA) and analyzed by flow cytometry. […] From MFI versus antibody concentration curves, Mid-Point Fluorescence (MPF) value for each anti-CD19 humanized antibody was calculated using the software GraphPad Prism 5 (CA, USA).

Row | Binder | relative MPF (% of chimeric FMC63) [%]
1 | B1 | 3.65
2 | B2 | 2.37
3 | B3 | 10.9
4 | B4 | 3.97
5 | B5 | 23.5
6 | B6 | 3.48
7 | B7 | 6.05
8 | B8 | 32.9
9 | B9 | 2.4
10 | B10 | 2.67

These binders were tested against T1, human CD19 (assay: flow cytometry on Raji cells, PE-labelled anti-human secondary antibody, MFI against antibody concentration).
Method: These immunoglobulins were assessed for antigen-binding affinity by half-maximal binding assays on B-cell lymphoma cell-lines (FACS) and compared to a chimeric version of FMC63 (this was to standardized level of staining from the anti-human Fc PE-labeled detection-antibody, as described in Example 2).
as §1

Row | Binder | binding result
11 | B11 | no binding (tested: about 10 ug/ml (Log(ug/ml) about 1))
12 | B12 | binds
13 | B13 | no binding (tested: about 10 ug/ml (Log(ug/ml) about 1))
14 | B14 | no binding (tested: about 10 ug/ml (Log(ug/ml) about 1))
15 | B15 | binds
16 | B16 | binds
17 | B17 | binds
18 | B18 | binds
19 | B19 | binds
20 | B20 | no binding (tested: about 10 ug/ml (Log(ug/ml) about 1))
21 | B21 | binds

What follows are binders tested against T1, human CD19 (assay: flow cytometry, Raji cells, MPF vs chimeric FMC63).
Method: as §1

Row | Binder | relative MPF (% of chimeric FMC63) [%] | binding result
22 | B22 | 133 | –
23 | B23 | 10 | –
24 | B24 | – | binds
25 | B1 | 8.43 | –
26 | B25 | 6.93 | –
27 | B26 | 11.3 | –
28 | B27 | – | binds
29 | B28 | 31.8 | –
30 | B29 | 4.19 | –
31 | B3 | 25.9 | –
32 | B5 | 41.8 | –
33 | B30 | – | binds
34 | B7 | 9.72 | –
35 | B8 | 52.9 | –
36 | B31 | 39.5 | –
37 | B32 | – | binds
38 | B33 | 18.2 | –
